Among the data in publication PMC12592476 are Kd and stoichiometry N values, retold here.

Assay [1] deals with bovine brain Arp2/3 complex (bovine) (UniProt P61157). Kind of assay: ITC; Coro7 CA in the syringe, ADP-bound Arp2/3 complex in the 1.44 mL cell; 25 °C; 20 mM HEPES pH 7.5, 100 mM KCl, 1 mM MgCl2, 1 mM EGTA, 1 mM DTT, 0.2 mM ADP. On the technique in general: ITC needs no label: the signal is the heat of the interaction.
Assay [2] shares this target. Nature of the assay: ITC; Coro7 CA in the syringe, ATP-bound Arp2/3 complex in the 1.44 mL cell; 25 °C; 20 mM HEPES pH 7.5, 100 mM KCl, 1 mM MgCl2, 1 mM EGTA, 1 mM DTT, 0.2 mM ATP.

Chain of human Coro7 CA (C-terminal Central-Acidic region of coronin 7) (P57737 888-925): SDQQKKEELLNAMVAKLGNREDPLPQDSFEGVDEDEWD

In assay [1], “human Coro7 CA (C-terminal Central-Acidic region of coronin 7) (from UniProt P57737-1 888-925) (domain or fragment)” showed a Kd of 1000 nM and a stoichiometry N of 1. In assay [2], this substance displayed a Kd of 1000 nM and a stoichiometry N of 1.

Usually Kd stands for the concentration at which binding is half-saturated. Read a high Kd as a looser complex. For orientation: stoichiometry N means a count of units in the complex or per binding partner.
